Substrate in this data set: Nc1ncnc2c1ncn2[C@@H]1O[C@H](COP(=O)(O)OP(=O)(O)OP(=O)(O)O)[C@@H](O)[C@H]1O
In words: NADH-coupled ATPase assay (pyruvate kinase / lactate dehydrogenase), fit with Hill coefficient. It counts as biochemical, Mycolicibacterium smegmatis. Conditions: 0.1 μM complex in 0.05% DDM micelles, 20 mM Tris-HCl pH 8.0, 150 mM NaCl, 5 mM MgCl2, 10% glycerol, 37 °C, Michaelis-Menten with Hill term (n = 1.28 ± 0.57).

The term Km denotes the concentration of substrate that gives half-maximal velocity.

B1: YrbE1A/B-MceG (core ABC transporter of the Mce1 system) (Mycolicibacterium smegmatis MC2 155) (protein)
chain: MGVQIDVTGLSKSFGSSKIWEDVTMSIPAGEVSVLLGPSGTGKSVFLKSLIGLLRPERGSIVIDGTDILQCSAKELYEIRTLFGVLFQDGALFGSMNIYDNTAFPLREHTKKSESEIRKIVMEKLDLVGMPNDGHKFPGEISGGMRKRAGLARALVLDPEIILCDEPDSGLDPVRTAYLSQLLIDINAQIDATVLIVTHNINIARTVPDNMGMLFRKQLVMFGPREVLLTSEEPVVKQFLNGRRIGPIGMSEEKDEATAAAEQALVDAGQHDGGVEEIEGVPPQLQATPGMPERKAVARRKARVREILHTLPPAAQAAILEELDRDQPQLSAPTTQTAATAPVENYDDSPTGVIEVPKQA
notes: YrbE1A, His6-YrbE1B and MceG co-expressed in E. coli BL21(λDE3); DDM-solubilised, TALON and SEC purified; with ABC transporter permease YrbE1A (Mce1 transmembrane domain protein); ABC transporter permease YrbE1B (Mce1 transmembrane domain protein)
Turning to B1, the Km was determined as 284 ± 311 µM and the kcat worked out at 0.184 ± 0.125 μM ATP s^−1/μM complex.

The values above are taken from PMC10517005, “A conserved membrane protein negatively regulates Mce1 complexes in mycobacteria” (Nature Communications, 2023).
